Assay results: patent EP0308499B1, “SUBSTRATE ASSISTED CATALYSIS” (GENENCOR INTERNATIONAL, INC., priority 1987, dated 1988)
Where a chain is given by its changes, count along the chain named. Names and notes keep the numbering of the source. Numbered stars: 1 amine (or outer) side, 2 acyl side, 3 side chain; on linkers, the order of the positions; unused ones are H or OH. Peptide text beside a SMILES is read from it. * marks the point of attachment. pNA = O=[N+]([O-])c1ccc(N*)cc1; Suc = O=C(CCC(=O)[*:2])[*:1]

Legend:
[1] = biological target: T1, B. amyloliquefaciens subtilisin mutant Cys-24/Ala-64 (Ser-24→Cys/His-64→Ala) (Bacillus amyloliquefaciens, UniProt P00782, H171A/S131C); assay: Inhibition by the active site reagent PMSF; format: biochemical; details: concentration not given
T1 construct: The His-64→Ala mutation caused a severe reduction in secretion of mature subtilisin; made in house; host or cells: Bacillus subtilis BG2036, co-cultured with helper cells carrying active Ala-48→Glu subtilisin
T1 sequence (P00782 108-382 S131C/H171A): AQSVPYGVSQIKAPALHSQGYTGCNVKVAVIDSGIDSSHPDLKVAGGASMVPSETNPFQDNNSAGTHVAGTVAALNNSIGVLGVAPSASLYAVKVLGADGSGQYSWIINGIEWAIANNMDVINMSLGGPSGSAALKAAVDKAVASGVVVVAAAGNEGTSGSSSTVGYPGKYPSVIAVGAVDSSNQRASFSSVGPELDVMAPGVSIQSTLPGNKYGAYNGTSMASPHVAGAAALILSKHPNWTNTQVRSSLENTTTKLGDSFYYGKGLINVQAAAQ
Experimental: (§1) The kinetic parameters for Cys-24 and Cys-24/Ala-64 were determined against the substrates N-succinyl-L-Phe-L-Ala-L-[X)-L-Phe-ρ-nitroanilide (abbreviated sFAXF-pNA), where X (P2 position) was Ala, Gln, or His (Table I). […] By comparison, the His-64→Ala mutation causes a drop of ∿10⁶ fold in kcat/Km against the Ala and Gln P2 substrates. Almost all of the decrease in catalytic efficiency is caused by a decreased kcat term (up to 10⁶ times), although smaller but significant increases appear in Km. […] Although the proportion of functional active sites in Cys-24/Ala-64 enzyme preparations could not be determined directly by such active site labeling, enzyme that was purified by additional native gel electrophoresis (Example 6) had identical kinetic parameters to Cys-24/Ala-64 described in Table V.
Several lines of evidence indicate that the activity we attribute to the Cys-24/Ala-64 enzyme is not the result of any other protease contamination. Firstly, the extreme substrate preference for His at the P2 position is unlike wild-type subtilisin or any known Bacillus protease. […] Finally, the kinetic values determined for Cys-24/Ala-64 that was additionally purified by native gel electrophoresis (Example 6) are essentially the same as these reported in Table V.

[2] = biological target: β-lactamase, Serine-70 substituted with cysteine (thiol-containing β-lactamase) (Escherichia coli, UniProt P62593, S68C); details: cited from earlier work; for kcat: relative to that of a wild type enzyme
[3] = biological target: T1, B. amyloliquefaciens subtilisin mutant Cys-24/Ala-64 (Ser-24→Cys/His-64→Ala); assay: Kinetic analysis of hydrolysis of p-nitroanilide peptide substrates (release of ρ-nitroaniline, Eadie-Hofstee plot); format: biochemical
Experimental: as §1

[4] = substrate: C[C@H](NC(=O)[C@H](C)NC(=O)[C@H](Cc1ccccc1)NC(=O)CCC(=O)O)C(=O)N[C@@H](Cc1ccccc1)C(=O)Nc1ccc([N+](=O)[O-])cc1; assay: as above; format: biochemical, B. amyloliquefaciens; details: other: 0.10 M Tris-HCl (pH 8.6), 10 mM DTT, 25±0.1°C, 25.0 °C
Experimental: as §1

[5] = substrate: C[C@H](NC(=O)[C@H](Cc1ccccc1)NC(=O)CCC(=O)O)C(=O)N[C@@H](Cc1c[nH]cn1)C(=O)N[C@@H](Cc1ccccc1)C(=O)Nc1ccc([N+](=O)[O-])cc1; assay: as above; format: biochemical, B. amyloliquefaciens; details: other: 0.10 M Tris-HCl (pH 8.6), 10 mM DTT, 25±0.1°C, 25.0 °C
Experimental: as §1

[6] = substrate: C[C@H](NC(=O)[C@H](Cc1ccccc1)NC(=O)CCC(=O)O)C(=O)N[C@@H](CCC(N)=O)C(=O)N[C@@H](Cc1ccccc1)C(=O)Nc1ccc([N+](=O)[O-])cc1; assay: as above; format: biochemical, B. amyloliquefaciens; details: other: 0.10 M Tris-HCl (pH 8.6), 10 mM DTT, 25±0.1°C, 25.0 °C
Experimental: as §1

**Q.** With `O=S(=O)(F)Cc1ccccc1` [PMSF, phenylmethylsulfonyl-fluoride] as the molecule, how does the “inhibition by PMSF” value [1] read?
**A.** completely resistant to inhibition

**Q.** With `O=C(Cc1cccs1)N[C@@H]1C(=O)N2C(C(=O)O)=C(/C=C/c3ccc([N+](=O)[O-])cc3[N+](=O)[O-])CS[C@H]12` [nitrocefin] as the molecule, how does the Km ([2]; relative to that of the wild type) read?
**A.** greater than 10 fold

**Q.** Which kcat [2] does the source give for `CC1(C)S[C@@H]2[C@H](NC(=O)Cc3ccccc3)C(=O)N2[C@H]1C(=O)O` [benzyl penicillin] here?
**A.** 1-2%

**Q.** For `CC1(C)S[C@@H]2[C@H](NC(=O)[C@H](N)c3ccccc3)C(=O)N2[C@H]1C(=O)O` [ampicillin], which kcat [2] is on record?
**A.** 1-2%

**Q.** With `C[C@H](NC(=O)[C@H](Cc1ccccc1)NC(=O)CCC(=O)O)C(=O)N[C@@H](Cc1c[nH]cn1)C(=O)N[C@@H](Cc1ccccc1)C(=O)Nc1ccc([N+](=O)[O-])cc1` [His, N-succinyl-L-Phe-L-Ala-L-X-L-Phe-ρ-nitroanilide] (Suc-FAHF-pNA) as the molecule, how does the “catalytic efficiency below wild-type” value ([3]; kcat/Km compared with wild-type subtilisin) read?
**A.** 5,000 fold

**Q.** What about the “kcat of the His P2 substrate larger than that of the Ala P2 substrate by a factor” value ([3]; pH 8.6, Table V data) of the same molecule?
**A.** 2,000

**Q.** And the “kcat of the His P2 substrate larger than that of the Gln P2 substrate by a factor” value ([3]; pH 8.6, Table V data)?
**A.** 500

B1: B. amyloliquefaciens subtilisin, recombinant Cys-24 (Ser-24→Cys; kinetically essentially identical to wild-type) (Bacillus amyloliquefaciens; S131C) (protein)
chain: T1 sequence (P00782 108-382 S131C/H171A) with A64H
notes: Maturation of the primary subtilisin gene product (preprosubtilisin) to subtilisin in B. substilis is believed to be mediated by autoproteolysis; made in house
**Q.** With B1 as the molecule, how does the Km [4] read?
**A.** 10 µM

**Q.** What about the kcat [4] of the same molecule?
**A.** 8.1 s⁻¹

**Q.** What about the kcat/Km [4] of the same molecule?
**A.** 8.0 x 10^5 s^-1M^-1

**Q.** What about the Km [5] of the same molecule?
**A.** 23 µM

**Q.** What about the kcat [5] of the same molecule?
**A.** 4.6 s⁻¹

**Q.** What about the kcat/Km [5] of the same molecule?
**A.** 2.0 x 10^5 s^-1M^-1

**Q.** And the Km [6]?
**A.** 39 µM

**Q.** What about the kcat [6] of the same molecule?
**A.** 7.0 s⁻¹

**Q.** What about the kcat/Km [6] of the same molecule?
**A.** 1.8 x 10^5 s^-1M^-1

B2: B. amyloliquefaciens subtilisin mutant Cys-24/Ala-64 (Ser-24→Cys/His-64→Ala) (Bacillus amyloliquefaciens; H171A/S131C) (protein)
chain: T1 sequence (P00782 108-382 S131C/H171A)
**Q.** What does the source list for B2?
**A.** Km ([4]; in the presence of PMSF): 32 µM; kcat ([4]; in the presence of PMSF): 8.1e-06 s⁻¹; kcat/Km ([4]; in the presence of PMSF): 0.25 s^-1M^-1; Km ([5]; in the presence of PMSF): 380 µM; kcat ([5]; in the presence of PMSF): 0.016 s⁻¹; kcat/Km ([5]; in the presence of PMSF): 42 s^-1M^-1; Km ([6]; in the presence of PMSF): 150 µM; kcat ([6]; in the presence of PMSF): 3e-05 s⁻¹; kcat/Km ([6]; in the presence of PMSF): 0.20 s^-1M^-1
